The source of these data is US20030203869A1.

The target in this assay is purified HLA-A2.1 molecules (human). Briefly: inhibition of binding of a labeled reference peptide to purified HLA-A2.1.

On to “HBV Core 18 (HBV core 18-27) CTL epitope peptide […] (peptide; other documents disagree on this pair)”, for which the IC50 (as a rule, the concentration that inhibits the measured activity by half) came out at 3 nM.
“HBV Pol 551-A (native HBV pol 551-559) CTL epitope peptide […] (peptide; other documents disagree on this pair)”: the IC50 came out at 200 nM.
Regarding “HIV Pol 476 (HIV pol 476-484) CTL epitope peptide […] (peptide; other documents disagree on this pair)”, the IC50 turned out to be 192 nM.
